We go through one molecule from patent publication US20240301064A1 (published 2024).

Assay [1] addresses PD-1 on PD-1 reporter Jurkat cells. The assay can be described thus: cell-based or functional assay.
The target of a further assay is T1, mouse PD-1 (mouse, UniProt Q02242 25-167, limits assumed).
T1 sequence (looked up): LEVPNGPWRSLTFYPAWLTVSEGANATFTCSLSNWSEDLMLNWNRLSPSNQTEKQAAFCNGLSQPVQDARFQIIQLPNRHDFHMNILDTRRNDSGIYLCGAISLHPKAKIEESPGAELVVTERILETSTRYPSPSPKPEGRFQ
The assay can be described thus: BLI, antibody on AHC tip.

The next assay addresses T2, human MAdCAM (human, UniProt Q13477 19-317, limits assumed).
T2 construct: also called huMAdCAM
T2 sequence (looked up): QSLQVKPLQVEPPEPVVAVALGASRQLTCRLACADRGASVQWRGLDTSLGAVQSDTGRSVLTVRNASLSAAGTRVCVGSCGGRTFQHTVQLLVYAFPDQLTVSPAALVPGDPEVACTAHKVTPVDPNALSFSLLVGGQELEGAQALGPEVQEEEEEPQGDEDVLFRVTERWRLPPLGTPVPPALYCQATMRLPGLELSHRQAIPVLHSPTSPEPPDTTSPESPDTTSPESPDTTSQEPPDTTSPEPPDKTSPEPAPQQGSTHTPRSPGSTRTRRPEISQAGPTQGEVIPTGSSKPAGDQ
The experiment in a line: BLI, antibody on AHC tip, soluble MAdCAM. Here is the method: (§1) Anti-human IgG Fc (AHC) biosensors were equilibrated in assay buffer for 20 minutes. Test article was diluted to 10 μg/mL in assay buffer (lx PBS, 1% BSA, 0.05% Tween20). A seven-point serial dilution of human and cynomolgus PD-1 or human, cynomolgus and mouse MAdCAM was prepared in assay buffer, starting at 1000 nM down to 15.625 nM. For PD-1 binding, test article was loaded on tips for 180 s followed by a 180 s association phase with PD-1 and 240 s dissociation phase in assay buffer. For MAdCAM binding, test article was loaded on tips for 180 s followed by a 120 s association phase with MAdCAM and 180 s dissociation phase in assay buffer. […] Accordingly, PMAB65 binds human, cyno, and mouse PD-1 and MAdCAM.

Another assay addresses T3, cynomolgus MAdCAM (cynomolgus).
T3 chain: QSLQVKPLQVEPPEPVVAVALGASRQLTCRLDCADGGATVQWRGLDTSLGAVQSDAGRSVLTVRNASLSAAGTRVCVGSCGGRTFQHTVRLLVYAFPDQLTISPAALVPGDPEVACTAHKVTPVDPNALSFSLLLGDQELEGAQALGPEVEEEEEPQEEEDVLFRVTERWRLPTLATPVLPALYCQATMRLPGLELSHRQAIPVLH
The assay can be described thus: BLI, antibody on AHC tip, soluble MAdCAM. Here is the method:
as §1

A further assay addresses T4, mouse MAdCAM (mouse, UniProt Q61826 22-364).
T4 sequence (looked up): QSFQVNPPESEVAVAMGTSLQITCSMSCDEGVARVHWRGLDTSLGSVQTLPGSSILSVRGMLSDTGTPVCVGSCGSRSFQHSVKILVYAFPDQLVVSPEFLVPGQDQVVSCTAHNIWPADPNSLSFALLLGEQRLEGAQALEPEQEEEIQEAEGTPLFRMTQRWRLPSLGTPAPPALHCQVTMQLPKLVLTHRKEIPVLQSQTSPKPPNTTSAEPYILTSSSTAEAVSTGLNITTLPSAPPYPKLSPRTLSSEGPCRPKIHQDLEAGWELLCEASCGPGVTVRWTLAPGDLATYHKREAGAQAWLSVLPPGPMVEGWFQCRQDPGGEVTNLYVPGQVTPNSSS
The experiment in a line: BLI, antibody on AHC tip, soluble MAdCAM. Here is the method: as §1

A further assay deals with T5, cynomolgus PD-1 (cynomolgus).
T5 construct: also called cyno PD-1
The assay can be described thus: BLI, antibody on AHC tip, soluble PD-1.

Another assay addresses T6, human PD-1 (human, UniProt Q15116 25-167, limits assumed).
T6 construct: also called huPD-1
The assay can be described thus: BLI, antibody on AHC tip, soluble PD-1.

T6 sequence (Q15116 25-167 limits assumed): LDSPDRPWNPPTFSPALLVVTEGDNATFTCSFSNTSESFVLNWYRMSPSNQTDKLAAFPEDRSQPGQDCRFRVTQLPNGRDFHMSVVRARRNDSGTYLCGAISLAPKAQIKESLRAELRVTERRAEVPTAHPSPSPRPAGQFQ

B1: PMAB65 (bispecific antibody, human IgG1, kappa)
heavy: EVQLLESGGGLVQPGGSLRLSCAASGFTFSSYDMSWVRQAPGKGLEWVSGITISGGSTYYADSVKGRFTISRDNSKNTLYLQMNSLRAEDTAVYYCARGRGGSGWLDYWGQGTTVTVSSASTKGPSVFPLAPSSKSTSGGTAALGCLVKDYFPEPVTVSWNSGALTSGVHTFPAVLQSSGLYSLSSVVTVPSSSLGTQTYICNVNHKPSNTKVDKKVEPKSCDKTHTCPPCPAPEAAGAPSVFLFPPKPKDTLMISRTPEVTCVVVDVSHEDPEVKFNWYVDGVEVHNAKTKPREEQYNSTYRVVSVLTVLHQDWLNGKEYKCKVSNKALPAPIEKTISKAKGQPREPQVYTLPPSREEMTKNQVSLTCLVKGFYPSDIAVEWESNGQPENNYKTTPPVLDSDGSFFLYSKLTVDKSRWQQGNVFSCSVMHEALHNHYTQKSLSLSPGGGGGSGGGGSGGGGSEVQLLESGGGLVQPGGSLRLSCAASGFTFSSYWMHWVRQAPGKGLEWVSYISGSGGYTNYADSVKGRFTISRDNSKNTLYLQMNSLRAEDTAVYYCARDRPYYYDMDVWGKGTTVTVSSGGGGSGGGGSGGGGSGGGGSDIQMTQSPSSLSASVGDRVTITCRASQSISSSLAWYQQKPGKAPKLLIYAASSLQSGVPSRFSGSGSGTDFTLTISSLQPEDFATYYCQQYKSYPVTFGQGTKVEIK
light: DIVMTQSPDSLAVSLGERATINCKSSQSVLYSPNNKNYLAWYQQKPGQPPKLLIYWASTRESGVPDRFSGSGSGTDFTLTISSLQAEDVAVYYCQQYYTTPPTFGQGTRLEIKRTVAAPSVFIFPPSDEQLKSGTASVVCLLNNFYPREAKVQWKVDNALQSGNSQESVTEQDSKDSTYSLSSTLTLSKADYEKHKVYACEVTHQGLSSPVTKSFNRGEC
On to B1, for which the “PD-1 reporter Jurkat cells on test-article-loaded MAdCAM-expressing CHO cells; EC50” value in assay [1] is 0.78 nM. Further, the “SHP-2 recruitment, Ig-tethered test article, PD-1 reporter Jurkat cells; EC50” value in assay [1] came out at 3.04 nM. Besides, in the assay with mouse PD-1, the binding result is listed as “no binding”. The Kd in the assay with human MAdCAM is 75.5 nM; with cynomolgus MAdCAM, 24.3 nM; with mouse MAdCAM, 269 nM; in the assay with cynomolgus PD-1 it was 30.3 nM; with human PD-1 it was 32.6 nM.
